Measurements taken from patent US20200024330A1.

Columns and labels:
Assay in all cases: cell-based or functional assay
[1] = molecular target: HIV-1 92UG005 envelope glycoprotein (Env) on pseudovirus (HIV-1)
[2] = molecular target: HIV-1 92UG024 envelope protein (Env) on pseudovirus (HIV-1)
[3] = molecular target: HIV-1 92UG031 envelope glycoprotein (Env) (HIV-1)
[4] = molecular target: HIV-1 93IN905 envelope protein (Env) on pseudovirus (HIV-1)
[5] = molecular target: HIV-1 93UG077 envelope protein (Env) on pseudovirus (HIV-1)
[6] = molecular target: HIV-1 98CN009 envelope glycoprotein (Env) on pseudovirus (HIV-1)
[7] = molecular target: HIV-1 Env of isolate MGRM-AE-002 (HIV-1)
[8] = molecular target: HIV-1 Env of isolate MGRM-D-013 (clade D) (HIV-1)
[9] = molecular target: HIV-1 Env of isolate MGRM-G-024 (clade G pseudovirus) (HIV-1)
[10] = molecular target: HIV-1 Env of pseudovirus 6535.3 (Acute), clade B (HIV-1)
[11] = molecular target: HIV-1 Env of pseudovirus 92BR020, clade B (HIV-1)
[12] = molecular target: HIV-1 Env of pseudovirus APV_17, clade B (HIV-1)
[13] = molecular target: HIV-1 JRCSF envelope glycoprotein (Env) on pseudovirus (HIV-1)
[14] = molecular target: HIV-1 LAVIC_18 Env (HIV-1)
[15] = molecular target: HIV-1 LAVI_C3 Env (HIV-1)
[16] = molecular target: HIV-1 MGRM-A-008 envelope glycoprotein (Env) (HIV-1)
[17] = molecular target: HIV-1 Env of isolate 92UG001 (HIV-1)
[18] = molecular target: HIV-1 Env of isolate APV-13 (pseudovirus) (HIV-1 isolate APV-13, subtype B)
[19] = molecular target: HIV-1 Env of isolate MGRM-A-007 (clade A), on pseudovirus (HIV-1)
[20] = molecular target: HIV-1 Env of isolate MGRM-AE-005 (CRF01_AE), on pseudovirus (HIV-1)
[21] = molecular target: HIV-1 Env of isolate MGRM-AE-007 (CRF01_AE), on pseudovirus (HIV-1)
[22] = molecular target: HIV-1 Env of isolate MGRM-AG-011 (CRF_AG), on pseudovirus (HIV-1)
[23] = molecular target: HIV-1 Env of isolate MGRM-AG-012 (CRF_AG), on pseudovirus (HIV-1)
[24] = molecular target: HIV-1 Env of isolate MGRM-C-015 (HIV-1)
[25] = molecular target: HIV-1 Env of isolate MGRM-C-019 (HIV-1)
[26] = molecular target: HIV-1 Env of isolate MGRM-Chronic-B-004 (HIV-1)
[27] = molecular target: HIV-1 Env of isolate MGRM-D-005 (HIV-1)
[28] = molecular target: HIV-1 Env of isolate MGRM-D-016 (HIV-1)
[29] = molecular target: HIV-1 Env of isolate MGRM-D-026 (subtype D), on pseudovirus (HIV-1)
[30] = molecular target: HIV-1 Env of isolate MGRM-F1-006 (subtype F), on pseudovirus (HIV-1)
[31] = molecular target: HIV-1 Env of isolate MGRM-F1-010 (subtype F), on pseudovirus (HIV-1)
[32] = molecular target: HIV-1 Env of isolate THR0.18 (HIV-1)
[33] = molecular target: HIV-1 Env of isolate VLGCB3 (HIV-1)
[34] = molecular target: HIV-1 JR-CSF Env D185A (HIV-1 (isolate JR-CSF)) (UniProt P20871)
[35] = molecular target: HIV-1 JR-CSF Env F468A (HIV-1 (isolate JR-CSF)) (UniProt P20871)
[36] = molecular target: HIV-1 JR-CSF Env T162A (HIV-1 (isolate JR-CSF)) (UniProt P20871)
[37] = molecular target: HIV-1 MGRM-C-028 envelope glycoprotein (Env) on pseudovirus (HIV-1)

Chain of 1443_C16 (PG16) (TCN-116) (antibody) (VH): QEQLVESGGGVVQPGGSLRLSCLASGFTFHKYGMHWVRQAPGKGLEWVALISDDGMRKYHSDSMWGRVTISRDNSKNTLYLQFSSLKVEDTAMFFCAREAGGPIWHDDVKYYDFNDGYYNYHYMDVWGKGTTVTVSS
Chain of 1443_C16 (PG16) (TCN-116) (antibody) (VL): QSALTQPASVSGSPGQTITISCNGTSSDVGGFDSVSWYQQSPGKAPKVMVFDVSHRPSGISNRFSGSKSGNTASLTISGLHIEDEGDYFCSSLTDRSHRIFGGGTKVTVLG

Row | Substance | IC90 (pseudovirus neutralization) [1] | neutralization IC50 [2] | IC50 (µg/ml), pseudovirus neutralization [3] | neutralization IC50 [4] | neutralization IC50 [5] | IC50 (µg/ml), pseudovirus neutralization [6] | IC50 (µg/ml), pseudovirus neutralization [7] | IC50 (µg/ml), pseudovirus neutralization [8] | IC50 (µg/ml), pseudovirus neutralization [9] | IC50 (µg/ml), pseudovirus neutralization [10] | IC50 (µg/ml), pseudovirus neutralization [11] | IC50 (µg/ml), pseudovirus neutralization [12] | IC90 (pseudovirus neutralization) [13] | IC50 [14] | IC50 [15] | IC50 (µg/ml), pseudovirus neutralization [16] | IC50 [17] | IC50 (µg/mL) neutralization [18] | IC50, single-round pseudovirus neutralization [19] | IC50, single-round pseudovirus neutralization [20] | also measured
1 | 2F5 (antibody) | > 50 µg/mL | 1.27 µg/mL | 3.81 µg/mL | > 50 µg/mL | 4.45 µg/mL | > 50 µg/mL | 0.31 µg/mL | 2.12 µg/mL | 1.07 µg/mL | 2.76 µg/mL | > 50 µg/mL | 4.61 µg/mL | 25.3 µg/mL | > 50 µg/mL | > 50 µg/mL | > 50 µg/mL |  |  |  |  | 
2 | 2G12 (antibody) | > 50 µg/mL | 0.59 µg/mL | > 50 µg/mL | > 50 µg/mL | > 50 µg/mL | > 50 µg/mL | > 50 µg/mL | > 50 µg/mL | > 50 µg/mL | 3.85 µg/mL | 4.84 µg/mL | > 50 µg/mL | 5.38 µg/mL | > 50 µg/mL | > 50 µg/mL | > 50 µg/mL |  |  |  |  | 
3 | 4E10 (antibody) | > 50 µg/mL | 1.32 µg/mL | 4.94 µg/mL | 1.55 µg/mL | 11.2 µg/mL | 2.46 µg/mL | 0.55 µg/mL | 5.38 µg/mL | 1.57 µg/mL | 1.23 µg/mL | > 50 µg/mL | 10.5 µg/mL | 44.1 µg/mL | > 50 µg/mL | 2.85 µg/mL | 7.59 µg/mL |  |  |  |  | 
4 | 1443_C16 (PG16) (TCN-116) (antibody) | > 50 µg/mL | > 50 µg/mL | 0.43 µg/mL | 0.102 µg/mL | > 50 µg/mL | 5.76 µg/mL | 0.01 µg/mL | 0.11 µg/mL | 0.01 µg/mL | 36.9 µg/mL | > 50 µg/mL | 24.8 µg/mL | 0.013 µg/mL | 0.02 µg/mL | 9.55 µg/mL | > 50 µg/mL |  |  |  |  | 
5 | 1495_C14 (PGC14) (antibody) |  | > 50 µg/mL | > 50 µg/mL | > 50 µg/mL | > 50 µg/mL | 43 µg/mL | > 50 µg/mL | > 50 µg/mL | > 50 µg/mL | 35 µg/mL | 4 µg/mL | > 50 µg/mL |  | > 50 µg/mL | 12 µg/mL | > 50 µg/mL |  |  |  |  | 
6 | 5136_H01 (PGT-131) (antibody) |  |  |  |  |  |  |  |  |  |  |  |  |  |  |  |  | > 50 µg/mL | 0.189 µg/mL | > 50 µg/mL | 0.017 µg/mL | IC50, single-round pseudovirus neutralization [21]: 0.026 µg/mL; IC50, single-round pseudovirus neutralization [22]: > 50 µg/mL; IC50, single-round pseudovirus neutralization [23]: > 50 µg/mL; IC50 [24]: 1.01 µg/mL; IC50 [25]: 0.021 µg/mL; IC50 [26]: 0.04 µg/mL; IC50 [27]: > 50 µg/mL; IC50 [28]: > 50 µg/mL; IC50, pseudovirus neutralization [29]: > 50 µg/mL; IC50, pseudovirus neutralization [30]: > 50 µg/mL; IC50, pseudovirus neutralization [31]: > 50 µg/mL; IC50 [32]: > 50 µg/mL; IC50 [33]: > 50 µg/mL; Fold IC50 increase relative to wild-type [34]: 0.7 fold; Fold IC50 increase relative to wild-type [35]: 1.6 fold; Fold IC50 increase relative to wild-type [36]: 0.6 fold
7 | 5147_N06 (PGT-130) (antibody) |  |  |  |  |  |  |  |  |  |  |  |  |  |  |  |  | > 50 µg/mL | 0.052 µg/mL | > 50 µg/mL | 0.006 µg/mL | IC50 (ug/ml), neutralizing activity [1]: 0.474 µg/mL; IC50, single-round pseudovirus neutralization [21]: 0.083 µg/mL; IC50, single-round pseudovirus neutralization [22]: > 50 µg/mL; IC50, single-round pseudovirus neutralization [23]: > 50 µg/mL; IC50 [24]: 0.344 µg/mL; IC50 [25]: 0.01 µg/mL; IC50 [26]: 0.01 µg/mL; IC50 [27]: > 50 µg/mL; IC50 [28]: > 50 µg/mL; IC50, pseudovirus neutralization [29]: > 50 µg/mL; IC50, pseudovirus neutralization [30]: > 50 µg/mL; IC50, pseudovirus neutralization [31]: > 50 µg/mL; IC50 [32]: > 50 µg/mL; IC50 [33]: 4.6 µg/mL; Fold IC50 increase relative to wild-type [34]: 0.9 fold; Fold IC50 increase relative to wild-type [35]: 0.4 fold; Fold IC50 increase relative to wild-type [36]: 0.6 fold; IC50 (ug/ml), neutralizing activity [37]: > 10 µg/mL
8 | 5343_B08 (PGT-135) (antibody) |  |  |  |  |  |  |  |  |  |  |  |  |  |  |  |  | > 50 µg/mL | 0.716 µg/mL | > 50 µg/mL | > 50 µg/mL | IC50, single-round pseudovirus neutralization [21]: > 50 µg/mL; IC50, single-round pseudovirus neutralization [22]: > 50 µg/mL; IC50, single-round pseudovirus neutralization [23]: 41.9 µg/mL; IC50 [24]: 0.104 µg/mL; IC50 [25]: 0.264 µg/mL; IC50 [26]: > 50 µg/mL; IC50 [27]: > 50 µg/mL; IC50 [28]: > 50 µg/mL; IC50, pseudovirus neutralization [29]: > 50 µg/mL; IC50, pseudovirus neutralization [30]: > 50 µg/mL; IC50, pseudovirus neutralization [31]: > 50 µg/mL; IC50 [32]: > 50 µg/mL; IC50 [33]: 0.142 µg/mL; Fold IC50 increase relative to wild-type [34]: 1.3 fold; Fold IC50 increase relative to wild-type [35]: 1.1 fold; Fold IC50 increase relative to wild-type [36]: 0.9 fold
9 | b12 (antibody) | > 50 µg/mL | 49.1 µg/mL | > 50 µg/mL | 34.1 µg/mL | 41.1 µg/mL | 1.52 µg/mL | 17.1 µg/mL | > 50 µg/mL | 2.38 µg/mL | 1.93 µg/mL | > 50 µg/mL | > 50 µg/mL | 1.17 µg/mL | > 50 µg/mL | 0.94 µg/mL | > 50 µg/mL |  |  |  |  | 
